Laboratory results published in PMC6884526 (2019).

Biological target: MBP-TrkB-454-821 (Rattus norvegicus (Rat), UniProt Q63604)
Test: pull-down (MBP-TrkB on amylose resin, GST-ActI-SIPA1L2 prey, immunoblot)

Sequence of MBP-TrkB-454-821 (Q63604 454-821): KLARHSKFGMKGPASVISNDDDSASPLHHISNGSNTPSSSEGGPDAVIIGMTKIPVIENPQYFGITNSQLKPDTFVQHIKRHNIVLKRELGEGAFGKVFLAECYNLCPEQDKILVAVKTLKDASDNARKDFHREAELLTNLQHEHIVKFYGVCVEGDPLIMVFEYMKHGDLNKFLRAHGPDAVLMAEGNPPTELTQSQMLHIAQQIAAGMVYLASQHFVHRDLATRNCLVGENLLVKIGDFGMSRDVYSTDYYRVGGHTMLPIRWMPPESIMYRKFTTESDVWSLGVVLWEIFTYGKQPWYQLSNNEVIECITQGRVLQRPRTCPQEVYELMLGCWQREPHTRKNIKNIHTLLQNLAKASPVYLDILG

binding result: binds
B1: GST-ActI-SIPA1L2-1-624 (protein)
chain: MSDPRPSQAEKHKLGRAASKFKDPSRAMQSDDYFARKFKAINGSMGPATLNTSSLSEGGGGGGGPANGTPAVPKMGVRARVSEWPPKKDCSKDLACKTLWESRSQSSYESATSIIQNGQNDQVDRQQEEQLDLDFVEAKYTIGDIFVHSPQRGLHPIRQRSNSDITISDIDTEDVLDQHAVNPNTGAALHREYGSTSSIDRQGLSGENVFAMLRGYRIESYDPKVTSSFGFPDFFPCDTAISPSLHAAAQISRGEFVRISGLDYMDGGLLMGRDRDKPFKRRLKSESVETSLFRKLRTVKSEHETFKFTSDLEEGRLDRGIRPWSCQRCFAHYDVQSILFNINEAMATRASVGKRKNITTGASAASQTPVPVGPAGGCESPLGSKEDLNAKENPDADEGDGKSNDLVLSCPYFRNETGGEGDRRIALSRANSASFSSGESCSFESSLSSHCTNAGVSVLEVPRENQPIHREKVKRYIIEHVDLGAYYYRKFFYGKEHQNYFGIDENLGPVAVSIRREKVEDPREKEGSQFNYRVAFRTSELTTLRGAILEDAVPSTARHGTARGLPLKEVLEYVIPELSIPCLRQAANSPKVPEQLLKLDEQGLSFQHKIGILYCKAGQSTEEE
